In PMC11003968 (Scientific Reports, 2024):

Biological target: IsdB Y165A, site-directed mutant of Staphylococcus aureus IsdB (Staphylococcus aureus, UniProt Q2FZF0 41-613, Y165A)
Assay: ELISA
Details: both partners purified

B1: Human hemoglobin A (oxyhemoglobin) (complex)
chain 1: not shown
chain 2: not shown
Q: How did the Kd turn out when B1 was run?
A: Its Kd is 80 ± 11 µM.
